The source of these data is patent US20210161943A1, “PAK4 INHIBITORS AND METHODS OF USE” (THE REGENTS OF THE UNIVERSITY OF CALIFORNIA, priority 2018, published 2021).

For data set [1], the system named is MC38 WT tumors. Nature of the data set: Tumor growth of MC38 WT colon adenocarcinoma tumors in C57BL/6 mice. The data set is classed as in vivo. Conditions: for tumor growth versus anti-PD-1 monotherapy: MC38 WT tumors, PAK4 inhibitor twice daily from days 4 to 7, P<0.05 days 7, 10 (day 14 only combination). On the procedure: All mouse studies were performed under UCLA Animal Research Committee protocol #2004-159-23. C57BL/6 mice were bred and kept under defined-flora pathogen-free conditions at the Association for Assessment and Accreditation of Laboratory Animal Care approved animal facility of the Division of Experimental Radiation Oncology, UCLA. To study the in vivo effect of PD-1 blockade in anti-tumor response and immune cell infiltration, we subcutaneously (s.c.) injected 0.3×10^6 B16 PAK4 KO melanoma cells or MC38 PAK4 KO cells into the flanks of C57BL/6 syngeneic mice. 96 hours after tumor injection mice were randomly assigned into the different groups. Anti PD-1 (Cat. No. BE0146, clone RMP1-14, BioXCell, West Lebanon, N.H.) treatment was injected intraperitoneally three times per week at 200 μg per dose. For CD8 depletion studies, we administered anti-CD8 (Cat. No. BE0117, clone YST 169.4, BioXCell) one day before anti-PD1 treatment and then it was co-administered with anti-PD1 for a total of four doses. Splenocytes from control and CD8 depleted mice were taken to validate CD8 depletion efficacy (FIGS. 14-15). To study the combination effects of PAK4 inhibition (KPT-9274) and anti-PD-1 (Cat. No. BE0146, clone RMP1-14, BioXCell) in immune cell infiltration and anti-tumor response, 0.5×10^6 B16 WT or MC38 WT cells were injected s.c. into the flanks of C57BL/6 mice. 96 hours after tumor injection mice were randomly assigned into the different groups. PAK4 inhibitor was administered twice a day by oral gavage at 150 mg/kg while anti-PD-1 treatment was administered as described above. Tumor progression was monitored three times per week by measuring two perpendicular dimensions with a calliper.

Data set [2] relates to Wnt/β-catenin-mediated transcription in PAK4 KO cells. The data set can be described thus: Topflash/Fopflash WNT activity luciferase assay, B16 PAK4 KO cells. The format is cell-based, murine. Conditions: Wnt-3a 200 ng/mL, 8 hours. As to the method: (§1) For Topflash WNT activity assay cells were plated in 24 well plates and were co-transfected with pSV-β-galactosidase control vector (PR-E1081, Promega, Madison, Wis.) along with either pTopflash (Addgene, Cat. No. 12456) or pFopflash (Addgene, Cat. No. 12457). 24 hours after transfection, cells were treated with Wnt-3a (R&D Systems, Minneapolins, Minn.) at 200 ng/mL. After 8 hours, cells were harvested using Reporter Lysis Buffer (Promega, Cat. No. PR-E4030) and luciferase activity was measured using Bright-Glo Luciferase Assay System (Promega, Cat. No. PR-E2610) and Beta-Glo Assay System (Promega, Cat. No. PR-E4720). Luciferase activity was normalized to its corresponding Beta-Glo activity to account for transfection efficiency.

The subject of data set [3] is Wnt/β-catenin-mediated transcription in B16 WT CRISPR control cells. Nature of the data set: Topflash/Fopflash WNT activity luciferase assay, B16 WT CRISPR control cells. The format is cell-based, murine. Conditions: Wnt-3a 200 ng/mL, 8 hours. On the procedure: as §1

Regarding `Nc1ccc(/C=C/C(=O)NCc2cc3cc(-c4ccc(C(=O)N5CCC(F)(F)CC5)cc4)cc(-c4ccc(F)cc4)c3o2)cn1` [KPT-9274], the “tumor growth versus anti-PD-1 monotherapy” value is “significant decreased tumor growth compared to anti-PD-1 alone” in data set [1] (listed as PAK4i) and “decreased tumor growth compared to the anti-PD-1 monotherapy group” in data set [1] (listed as PAK4 inhibitor). In addition, the “PAK4 inhibitor associated toxicity” value in data set [1] (mice bearing MC38 WT tumors, PAK4 inhibitor 150 mg/kg twice daily oral gavage, days 4 to 7) is recorded as “discontinued due to PAK4i associated toxicity”.

B1: Wnt-3a: Wnt-3a (R&D Systems), used at 200 ng/mL (protein, UniProt P56704 19-352, looked up)
Protein Wnt-3a: SYPIWWSLAVGPQYSSLGSQPILCASIPGLVPKQLRFCRNYVEIMPSVAEGIKIGIQECQHQFRGRRWNCTTVHDSLAIFGPVLDKATRESAFVHAIASAGVAFAVTRSCAEGTAAICGCSSRHQGSPGKGWKWGGCSEDIEFGGMVSREFADARENRPDARSAMNRHNNEAGRQAIASHMHLKCKCHGLSGSCEVKTCWWSQPDFRAIGDFLKDKYDSASEMVVEKHRESRGWVETLRPRYTYFKVPTERDLVYYEASPNFCEPNPETGSFGTRDRTCNVSSHGIDGCDLLCCGRGHNARAERRREKCRCVFHWCCYVSCQECTRVYDVHTCK
As to B1, the “induction of Topflash luciferase activity” value in data set [2] (PAK4 KO cells versus B16 WT control) was “significantly reduced”. Also, the “Fopflash luciferase activity (mutant TCF-binding sites)” value in data set [2] (PAK4 KO cells) and in data set [3] (B16 WT cells) was “did not induce” in each case. In addition, the Topflash luciferase activity entry in data set [3] (B16 WT CRISPR control cells) is “significantly induced”.
